According to publication doi:10.1101/2024.02.12.579961 (bioRxiv, 2024):

Biological target: the molecule itself
Test: non-reducing SDS-PAGE

Protein | binding result
MBP-tagged IAA19/MSG2, recombinant (natural protein, Arabidopsis thaliana, UniProt O24409 1-197, looked up) MEKEGLGLEITELRLGLPGRDVAEKMMKKRAFTEMNMTSSGSNSDQCESGVVSSGGDAEKVNDSPAAKSQVVGWPPVCSYRKKNSCKEASTTKVGLGYVKVSMDGVPYLRKMDLGSSQGYDDLAFALDKLFGFRGIGVALKDGDNCEYVTIYEDKDGDWMLAGDVPWGMFLESCKRLRIMKRSDATGFGLQPRGVDE | binds
MBP-tagged IAA3/SHY2 (wild type), recombinant (natural protein, Arabidopsis thaliana, UniProt Q38822 1-189, looked up) MDEFVNLKETELRLGLPGTDNVCEAKERVSCCNNNNKRVLSTDTEKEIESSSRKTETSPPRKAQIVGWPPVRSYRKNNIQSKKNESEHEGQGIYVKVSMDGAPYLRKIDLSCYKGYSELLKALEVMFKFSVGEYFERDGYKGSDFVPTYEDKDGDWMLIGDVPWEMFICTCKRLRIMKGSEAKGLGCGV | binds
